The target of experiment [1] is FITC-labeled pThr4 CTD peptide (16-mer, single phosphorylation at Thr4). Nature of the experiment: fluorescence anisotropy (FA). The note with it: read at the highest protein concentration, 100 µM, read off a plot. (In general: In fluorescence polarisation assays a small probe gives low polarisation when free and higher when bound to something large.)
For experiment [2], the target named is FITC-labeled pSer2 CTD peptide (16-mer, single phosphorylation at Ser2). Nature of the experiment: fluorescence anisotropy (FA). Particulars: read at the highest protein concentration, 100 µM, read off a plot.
In experiment [3] the target is FITC-labeled pThr4 CTD peptide (16-mer, single phosphorylation at Thr4). Nature of the experiment: fluorescence polarisation; CID protein titrated into 10 nM FITC-peptide; 50 mM Tris (pH 8.0), 300 mM NaCl, 10 mM BME; room temperature; triplicate; total binding model.
The target of experiment [4] is FITC-labeled pSer2 CTD peptide (16-mer, single phosphorylation at Ser2). The description is as above.
The subject of experiment [5] is pThr^4 (6D7) antibody. Nature of the experiment: Dot blot of pThr^4 CTD peptide after kinase treatment. The class given is biochemical. The note with it: pThr^4 CTD peptide (18-mer), 10 μg or 5 μg, kinase-treated vs no-kinase control (fig. S1C). From the text:
Another reported Thr^4 antibody masking effect in vitro is observed when Ser^2, two residues upstream of pThr^4, is phosphorylated (pSer^2Pro^3pThr^4Ser^5). Despite the in vitro blocking effect, this potential impediment posed to pThr^4 identification is less concerning under physiological conditions as pSer^2/pThr^4 double phosphorylation is rather rare in cells ([19]). Subsequent biochemical and cellular experiments have shown that, although Ser^2 and Thr^4 phosphorylations occur around the same time during transcription cycle, they tend to occur on different heptads because kinases avoid placing a phosphate on the neighboring Ser^2 when Thr^4 is phosphorylated and vice versa ([19]). […]
Another phosphorylation mark co-occurring with Thr^4 on the same heptad is Tyr1 (accounts for ~5% of doubly phosphorylated heptads) ([19]). […] To corroborate this, we evaluated the possibility that Tyr1 phosphorylation affects pThr^4 detection by treating pThr^4-containing CTD peptide with the Tyr1 kinase, c-Abl (fig. S1B). […]
Serial dilutions of pThr^4 CTD peptide or Dyrk1a/Abl1 kinase-treated pThr^4 CTD peptide were spotted on an activated nitrocellulose membrane. […] The membrane was washed three times and visualized on a LI-COR Odyssey CLx image reader. […]

The target in experiment [6] is T1, RNA Pol II CTD peptide CTD peptide (Homo sapiens, UniProt P24928, not fully specified (residue 2); also: pSer2 (heptad position 2, which repeat(s) not given here)).
T1 chain: YSPTSPSYSPTSPS
Nature of the experiment: fluorescence anisotropy.

The target of experiment [7] is T2, RNA Pol II CTD peptide CTD peptide (Homo sapiens, UniProt P24928, not fully specified (residue 4); also: pThr4 (heptad position 4, which repeat(s) not given here)).
T2 chain: YSPTSPSYSPTSPS
Nature of the experiment: fluorescence anisotropy.

Experiment [8] concerns the target FITC-labeled pThr4 CTD peptide (16-mer, single phosphorylation at Thr4). Nature of the experiment: fluorescence polarisation; CID protein titrated into 10 nM FITC-peptide; 50 mM Tris (pH 8.0), 300 mM NaCl, 10 mM BME; room temperature; triplicate; total binding model. The source holds these as a separate data set.
Experiment [9] has as its target FITC-labeled pSer2 CTD peptide (16-mer, single phosphorylation at Ser2). Described as above. This is another data set of the same source.
Experiment [10] has as its system pSer^2 Pol II in HEK293 nuclear extract. Nature of the experiment: Western blot, pSer^2 recognition in HEK293 nuclear extract treated with phosphatase. The note with it: HEK293 nuclear extract treated with Ssu72, antibody 3E10; vs untreated and inactive Ssu72 mutant. The class given is biochemical, human.
The subject of experiment [11] is RNA Pol II CTD. Particulars: cited from earlier work. An excerpt: The reported enrichment of pThr^4pSer^5 double phosphorylation in cells raised concerns for Thr^4 phosphorylation detection as the masking effect by adjacent phosphorylation may block pThr^4 recognition leading to false-negative results ([19]). To address this issue, we explored the possibility of eliminating the masking effect on pThr^4 antibody recognition by selectively removing the interfering phosphate groups on Ser^5 of the CTD. Our prior biochemical and structural analyses have established phosphatase Ssu72 as a highly specific phosphatase for Ser^5 of the CTD, distinguishing Ser^5 from ...

Like-named read-outs stand apart in the source and are kept apart here. Where no end group is shown, it is not given here.

As a reminder, the Kd is the concentration at which binding is half-saturated. High values mean weaker binding, low ones tighter binding.

“RPRD1A-CID (residues 2 to 133) (from UniProt Q96P16) R106A”: the response in [1] (pThr4 CTD peptide, parent: est. 87) amounted to 25 mP; in experiment [2] (pSer2 CTD peptide, parent: est. 110) it was 17 mP.
On to “RPRD2-CID (residues 19 to 149) (from UniProt Q5VT52 19-149) (domain or fragment)”, for which the values for the Kd in experiment [3] and in experiment [4] were 6.6 µM and 8.7 µM, respectively.
As for “RPRD1B-CID (residues 2 to 133) (from UniProt Q9NQG5) R106A”, the response in [1] (FITC-labeled pThr4 CTD peptide, parent: est. 150) was 8 mP; in experiment [2] (FITC-labeled pSer2 CTD peptide, parent: est. 170) it was 8 mP.
Regarding c-Abl: Tyr1 kinase, in experiment [5], the “effect of kinase treatment on pThr^4 antibody detection” value was “does not affect pThr^4 antibody recognition”.
As to “SCAF4-CID (residues 1 to 139) (from UniProt O95104) R112A”, the response in experiment [1] (pThr4 CTD peptide, parent: est. 77) was 15 mP; in experiment [2] (pSer2 CTD peptide, parent: est. 170), 17 mP.
Take “RPRD2-CID (residues 19 to 149) (from UniProt Q5VT52) R122A”: the response in experiment [1] (pThr4 CTD peptide, parent: est. 120) turned out to be 16 mP; in experiment [2] (pSer2 CTD peptide, parent: est. 180), 16 mP.

B1: CHERP CID (protein)
chain: LLEETQLDMNEFDNLLQPIIDTCTKDAISAGKNWMFSNAKSPPHCELMAGHLRNRITADGAHFELRLHLIYLINDVLHHCQRKQARELLAALQKVVVPIYCTSFLAVEEDKQQKIARLLQLWEKNGYFDDSIIQQLQSPALGLGQYQ
For B1, the Kd amounted to 10.7 µM in experiment [6] and 3.9 µM in [7].

B2: RPRD1A-CID (residues 2 to 133) (domain or fragment)
chain: SAFSEAALEKKLSELSNSQQSVQTLSLWLIHHRKHSRPIVTVWERELRKAKPNRKLTFLYLANDVIQNSKRKGPEFTKDFAPVIVEAFKHVSSETDESCKKHLGRVLSIWEERSVYENDVLEQLKQALYGDK
On to B2, for which the Kd in [8] amounted to 12.3 µM; in experiment [9], 13.8 µM.

B3: Ssu72: phosphatase highly specific for Ser^5 of the CTD (protein)
chain: MTDPSKLAVAVVCSSNMNRSMEAHNFLAKKGFNVRSYGTGERVKLPGMAFDKPNVYEFGTKYEDIYRDLESKDKEFYTQNGLLHMLDRNRRIKKCPERFQDTKEQFDIIVTVEERVYDLVVMHMESMESVDNRPVHVLNVDVVDNAEDALMGAFVITDMINMMAKSTDLDNDIDELIQEFEERRKRVILHSVLFY
modifications: left off: 6xHis, end not stated, state not stated | SUMO, end not stated, state not stated
On to B3, for which the “pSer^2 signal recognition” value in [10] is given as “no significant difference”. Besides, in experiment [11] (MS and biochemical assays), the “effect on Ser^5 phosphorylation on the CTD” value is recorded as “effectively eradicating Ser^5 phosphorylation” and the “effect on levels of pSer^2 or pThr^4” value is listed as “no effect”. Also, the “activity against pSer^7 relative to pSer^5” value in experiment [11] was “about three magnitudes lower”.

B4: SCAF4-CID (residues 1 to 139) (domain or fragment)
chain: MDAVNAFNQELFSLMDMKPPISRAKMILITKAAIKAIKLYKHVVQIVEKFIKKCKPEYKVPGLYVIDSIVRQSRHQFGTDKDVFGPRFSKNITATFQYLYLCPSEDKSKIVRVLNLWQKNGVFKIEIIQPLLDMAAGTS
As for B4, the Kd in experiment [8] came out at 8.1 µM; in [9], 6.7 µM.

B5: RPRD1B-CID (residues 2 to 133) (domain or fragment)
chain: SSFSESALEKKLSELSNSQQSVQTLSLWLIHHRKHAGPIVSVWHRELRKAKSNRKLTFLYLANDVIQNSKRKGPEFTREFESVLVDAFSHVAREADEGCKKPLERLLNIWQERSVYGGEFIQQLKLSMEDSK
As for B5, the Kd in [8] worked out at 5.3 µM; in experiment [9], 22.8 µM.

These data come from article PMC11378909, “Thr^4 phosphorylation on RNA Pol II occurs at early transcription regulating 3′-end processing” (Science Advances, 2024).
